Experimental data taken from patent US12269902B2, “Peptide compounds and peptide conjugates for the treatment of cancer through receptor-mediated chemotherapy” (TRANSFERT PLUS, S.E.C., priority 2015, dated 2025).
Residues, ends and D or L forms follow the SMILES beside them. *: point of attachment. X1 = CC(=O)O[C@@]12CO[C@@H]1C[C@H](O)[C@@]1(C)C(=O)[C@H](O)C3=C(C)[C@@H](OC(=O)[C@H](OC(=O)CCC(=O)*)[C@@H](NC(=O)OC(C)(C)C)c4ccccc4)C[C@@](O)([C@@H](OC(=O)c4ccccc4)[C@H]21)C3(C)C

Experiments:
[1] = tested on: SK-MEL-28 skin cancer cells; experiment: [3H]-Thymidine incorporation cell proliferation assay, SK-MEL-28; format: cell-based
Procedure: (§1) The effect of the Docetaxel-Katana peptide conjugate on various cell line proliferations was evaluated and compared to unconjugated Docetaxel (Table 4). IC50 values obtained for the Docetaxel-Katana peptide conjugate were very similar to those of Docetaxel in the cancer cells tested.
(§2) The phytochemical Curcumin, unconjugated and conjugated, was also tested on cancer cell proliferation (FIG. 28). Breast cancer cells (MDA-MB231) were incubated with increasing concentrations of KBC106 or curcumin. After 72 hrs, thymidine incorporation assay was performed to assess the anti-proliferative properties of both molecules. IC50 values were extracted from the anti-proliferative curves. […] Proliferation assay was also performed using different types of cancer cells (ovarian, breast, skin and colorectal cancer cells). IC50 values were calculated from the anti-proliferation curves. In all cases, the Curcumin conjugate (KBC106) had stronger anti-proliferative activity (9-100 fold) than unconjugated Curcumin, as shown in Table 6 below.
(§3) Cancer cells were cultured in 96-well white plates (Perkin Elmer). They were synchronized for 24 hours in serum-deprived medium. After incubation of cells with unconjugated drugs (docetaxel, cabazitaxel, doxorubicin) or with drug-Katana peptide conjugates for 2 or 3 days, all media was aspirated and cells were pulse-labeled for 4 hours at 37° C./[…]/5% CO2 with media containing 2.5 μCi/mL [methyl-3H] thymidine (Perkin Elmer). Cells were washed, fixed, and dried before addition of scintillation fluid (Microscint 0, Perkin Elmer). After 24 hours, cell-associated tritium was quantified by counting on a plate reader (TopCount, Perkin Elmer). Incorporated [3H] thymidine was plotted for each drug concentration.

A-375 skin cancer cells = experiment: [3H]-Thymidine incorporation cell proliferation assay, A-375; format: cell-based
Procedure: as §1, §2, §3

cancer cells = experiment: Apoptosis by fluorescence microscopy (alpha-tubulin, DAPI); format: cell-based; settings: fluorescent microscopy
Procedure: In FIG. 30, it was further evaluated whether the Curcumin conjugate (KBC106) induces cancer cell apoptosis. Cancer cells were incubated with KBC106 and curcumin. First column, uptake for both molecules can be monitored by fluorescent microscopy. Higher accumulation of fluorescence was detected for KBC1006 indicating a better cell internalization for the conjugate. Curcumin accumulation was barely visible in these cancer cells. […] In the third column, cell nucleus was labelled with the fluorescent dye DAPI.

[2] = tested on: ES-2 ovarian cancer cells; experiment: [3H]-Thymidine incorporation cell proliferation assay, ES-2; format: cell-based; settings: ES-2 (Ovary)
Procedure: as §1, §2, §3

[3] = tested on: MDA-MB-231 breast cancer cells; experiment: cells
Procedure: Breast cancer cells (MDA-MB231) were incubated with increasing concentrations of KBC106 or curcumin. After 72 hrs, thymidine incorporation assay was performed to assess the anti-proliferative properties of both molecules. IC50 values were extracted from the anti-proliferative curves.
The phytochemical Curcumin, unconjugated and conjugated, was also tested on cancer cell proliferation (FIG. 28). Breast cancer cells (MDA-MB231) were incubated with increasing concentrations of KBC106 or curcumin. After 72 hrs, thymidine incorporation assay was performed to assess the anti-proliferative properties of both molecules. IC50 values were extracted from the anti-proliferative curves. […] Proliferation assay was also performed using different types of cancer cells (ovarian, breast, skin and colorectal cancer cells). IC50 values were calculated from the anti-proliferation curves.
as §3

[4] = tested on: HCC-1569 breast cancer cells; experiment: cells; format: cell-based; settings: Homo sapiens, HCC1569; HCC-1569 (HER2+; Herceptin resistant); Table 6
Procedure: as §2, §3

[5] = tested on: HT-29 colorectal cancer cells; experiment: cells; format: cell-based; settings: Homo sapiens, Table 6
Procedure: as §2, §3

[6] = tested on: HCC-1954 breast cancer cells; experiment: cells; format: cell-based; settings: Homo sapiens, HCC1954; HCC-1954 (HER2+; Lapatinib resistant); Table 6
Procedure: as §2, §3

P-gp (MDR1) = P-gp (MDR1) (Homo sapiens, UniProt P08183); experiment: Drug accumulation in MDCK-MDR1 cells with or without Cyclosporin A; settings: 50 nM, 1 hr, 37° C., CsA 10 μM
Sequence of P-gp (MDR1) (P08183 whole entry): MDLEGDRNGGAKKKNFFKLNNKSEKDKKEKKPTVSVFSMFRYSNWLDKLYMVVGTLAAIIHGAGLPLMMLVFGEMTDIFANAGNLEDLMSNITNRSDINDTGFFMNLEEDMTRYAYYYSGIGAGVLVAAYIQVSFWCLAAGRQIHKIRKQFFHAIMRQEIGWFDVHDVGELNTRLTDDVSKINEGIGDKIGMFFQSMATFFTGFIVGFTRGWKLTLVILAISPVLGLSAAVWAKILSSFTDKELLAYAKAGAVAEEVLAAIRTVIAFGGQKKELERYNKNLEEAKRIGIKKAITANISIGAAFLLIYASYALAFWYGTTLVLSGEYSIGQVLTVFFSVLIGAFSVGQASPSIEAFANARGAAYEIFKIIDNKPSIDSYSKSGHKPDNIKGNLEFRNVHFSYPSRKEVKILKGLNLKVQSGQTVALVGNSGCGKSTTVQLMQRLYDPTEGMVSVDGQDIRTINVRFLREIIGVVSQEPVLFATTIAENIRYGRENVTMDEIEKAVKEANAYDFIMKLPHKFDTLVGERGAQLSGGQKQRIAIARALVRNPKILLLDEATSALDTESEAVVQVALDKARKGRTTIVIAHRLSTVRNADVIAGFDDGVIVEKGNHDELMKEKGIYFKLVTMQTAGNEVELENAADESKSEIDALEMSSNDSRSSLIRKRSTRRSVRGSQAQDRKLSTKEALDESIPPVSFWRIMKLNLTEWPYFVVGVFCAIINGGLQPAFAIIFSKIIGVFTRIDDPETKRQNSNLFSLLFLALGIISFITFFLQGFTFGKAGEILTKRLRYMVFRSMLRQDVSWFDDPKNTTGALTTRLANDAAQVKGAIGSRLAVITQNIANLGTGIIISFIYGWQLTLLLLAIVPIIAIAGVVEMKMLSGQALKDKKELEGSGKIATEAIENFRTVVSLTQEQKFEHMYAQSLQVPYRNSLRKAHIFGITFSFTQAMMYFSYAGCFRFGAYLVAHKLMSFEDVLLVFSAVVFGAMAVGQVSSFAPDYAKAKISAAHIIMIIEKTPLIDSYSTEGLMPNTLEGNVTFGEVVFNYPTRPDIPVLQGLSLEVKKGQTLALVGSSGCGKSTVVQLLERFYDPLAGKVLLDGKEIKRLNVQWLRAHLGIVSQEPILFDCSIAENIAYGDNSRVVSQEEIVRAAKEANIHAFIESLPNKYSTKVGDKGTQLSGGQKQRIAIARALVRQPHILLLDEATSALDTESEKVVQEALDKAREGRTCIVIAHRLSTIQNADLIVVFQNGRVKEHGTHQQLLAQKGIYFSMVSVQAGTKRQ
Procedure: 6A. […] 6B. MDCK-MDR1 cells were incubated with 50 nM of either [^14C]-Doxorubicin or [^125I]-Katana peptide-Doxorubicin conjugate (KBB106) for 1 hr at 37° C. in the presence or absence of CsA (10 μM). After the incubation, cells were washed and radioactivity accumulated in cells was quantified. The results were expressed in terms of uptake fmol/mg of protein.
In order to determine whether the anticancer drug-Katana-peptide conjugates could also be P-gp substrates, MDCK-transfected cells with human MDR1 were used (MDCK-MDR1).
Cells were washed three times with PBS and preincubated for 30 min at 37° C. in culture medium without serum with or without the P-gp inhibitor Cyclosporin A (10 μM). Radiolabelled molecules (50 nM) were then added for 60 min. The cells were rapidly washed three times with ice-cold PBS and then lysed in 500 µL of 0.1 M NaOH. The amount of radiolabelled molecules retained in the cells was counted by β-scintillation counting (Packard model 1900 TR). An aliquot of cell lysate was used in parallel to determine cellular protein concentration.

[7] = Tissue distribution of radiolabeled compounds in mice
Procedure: CD-1 mice were injected with the radiolabeled conjugate at 5 mg/kg via iv bolus injections (21A) or […] of radiolabeled Docetaxel (21B). At the indicated times (1 h, 6 h, 24 h) mice were sacrificed and perfused with saline for 8 min. Tissues were then collected and radioactivity was measured. Results are expressed in terms of ng/g of tissue.
At the indicated times (1, 6 and 24 hours), whole body perfusion was performed for 8 min with saline at a flow rate of 8 ml/min after […] hours iv bolus injections.
After radiolabeling free iodine was remove. Mice were injected with Docetaxel-[^125I]-Katana peptide conjugate at 5 mg/kg. Plasma was collected at the indicated times. After 1, 2 and 24 hours some mice were perfused with saline, sacrificed and tissues were collected. Radioactivity in the plasma and tissues were measured in a radioactivity counter and results were calculated and expressed in terms of […] for the plasma or ng/g of tissues.

SKOV3 cancer cells = experiment: SKOV3 luciferase subcutaneous xenograft tumour model (Docetaxel, KBA-105); settings: mice, treatments at 20 mg/kg/week as printed (equivalent dose of Docetaxel)
Procedure: Mice were implanted in the flank with SKOV3 cancer cells. Tumor growth was monitored by luminescence using the Near Infrared imaging system from Carestream.
Results are expressed in terms of luminescence intensity as a function of post-treatment days.
To further evaluate the in vivo efficacy of the Katana-drug conjugate, SKOV3 cancer cells expressing luciferase were implanted in the mouse flank. […] Tumour imaging was performed on different days by injecting the luciferase substrate luciferin and by using the Xtreme imaging system from Carestream.
Luminescence was then quantified and plotted as a function of days after implantation (FIG. 23).
SKOV3 cancer cells (2.5×10^6 cells) expressing luciferase were implanted in the right flank of mice. Tumour growth was monitored using near infrared (NiR) imaging system from Carestream by injecting the luciferase substrate luciferin. […] Luminescence associated with tumour growth of SKOV3/Luc cancer cells was quantified as a function of post-treatment days with the instrument software.

[8] = Plasma pharmacokinetics of radiolabeled compounds in mice; format: in vivo; settings: mice iv, Docetaxel 2.2 mg/kg, KBA105 5 mg/kg
Procedure: FIG. 20 is a graph showing concentration of unconjugated and conjugated Docetaxel as a function of time. Mice were injected iv with radiolabeled [^3H]-Docetaxel or radiolabeled [^125I]-KBA105 at an equivalent dose of Docetaxel (Docetaxel=2.2 mg/kg; KBA105=5 mg/kg). Plasma samples were collected at different time points and radioactivity quantified. Results are expressed in terms of KBA105 or Docetaxel concentration in plasma as a function of time. Area under the curve for the time period (AUC1-24) was estimated for KBA105 and Docetaxel using GraphPad Prism software. Ratio between AUC1-24 for KBA105 and Docetaxel was calculated to be around 35.
To evaluate the impact of the drug conjugation to Katana Biopharma peptide on drug pharmacokinetics and tissue distribution, mice were injected with [^125I]-Docetaxel-Katana peptide conjugate. Plasma was collected at different times (FIG. 19A). Radioactivity associated with plasma was quantified and pharmacokinetic parameters were determined. […] In FIG. 20, plasma concentration of Docetaxel-Katana peptide conjugate was compared to that of unconjugated Docetaxel after iv bolus injection.
After radiolabeling free iodine was remove. […] Plasma was collected at the indicated times.

With COc1cc(/C=C/C(=O)CC(=O)/C=C/c2ccc(O)c(OC)c2)ccc1O [Curcumin, curcumin] the IC50 ([1]; Homo sapiens, SK-MEL-28, Table 6) was 12.5 µM, the IC50 (A-375 skin cancer cells; Homo sapiens, A-375, Table 6) was 20.9 µM and the “induction of apoptosis (nucleus fragmentation, DAPI)” value (cancer cells) was “does not”. It also gave an IC50 ([2]; Table 6) of 14.4 µM, an IC50 ([3]; Homo sapiens, MDA-MB-231, 72 h) of 13.4 µM and an IC50 [4] of 14.8 µM. For the same compound, the IC50 [5] was 51.3 µM and the IC50 [6] was 12 µM.
With CSCC[C@H](NC(=O)[C@H](CC(N)=O)NC(=O)[C@H](CCCNC(=N)N)NC(=O)[C@@H](NC(=O)CNC(=O)[C@H](C)NC(=O)[C@H](CCCCNC(=O)CCC(=O)O[C@@H](C(=O)O[C@H]1C[C@@]2(O)[C@@H](OC(=O)c3ccccc3)[C@@H]3[C@]4(OC(C)=O)CO[C@@H]4C[C@H](O)[C@@]3(C)C(=O)[C@H](O)C(=C1C)C2(C)C)[C@@H](NC(=O)OC(C)(C)C)c1ccccc1)NC(=O)[C@H](C)NC(=O)[C@H](CCCNC(=N)N)NC(=O)[C@@H](NC(=O)CNC(C)=O)C(C)C)C(C)C)C(=O)N[C@@H](Cc1ccccc1)C(=O)N[C@@H](CCCCNC(=O)CCC(=O)O[C@@H](C(=O)O[C@H]1C[C@@]2(O)[C@@H](OC(=O)c3ccccc3)[C@@H]3[C@]4(OC(C)=O)CO[C@@H]4C[C@H](O)[C@@]3(C)C(=O)[C@H](O)C(=C1C)C2(C)C)[C@@H](NC(=O)OC(C)(C)C)c1ccccc1)C(=O)N[C@@H](CO)C(=O)N[C@@H](CCC(=O)O)C(=O)N[C@@H](CO)C(=O)N[C@@H](Cc1ccc(O)cc1)C(=O)O [KBA-105] (Ac-GVRAK(X1)AGVRNMFK(X1)SESY-OH; C-terminus assumed) the IC50 ([1]; SK-MEL-28 (Skin), Table 4, 2 or 3 days) was 9e-05 µM, the “effect of CsA on accumulation” value (P-gp (MDR1)) was “lack of CsA effect” and the “Ratio (Estimated Docetaxel/Docetaxel) (AUC1-24)” value ([7]; Brain) was 21.3. For the same compound, the “Ratio KBA105/Docetaxel (AUC1-24)” value ([7]; Brain) was 48.3, the “Ratio (Estimated Docetaxel/Docetaxel) (AUC1-24)” value ([7]; Heart) was 4.5 and the “Ratio KBA105/Docetaxel (AUC1-24)” value ([7]; Heart) was 10.3. The “Ratio (Estimated Docetaxel/Docetaxel) (AUC1-24)” value ([7]; Kidney) was 5.3, the “Ratio KBA105/Docetaxel (AUC1-24)” value ([7]; Kidney) was 12.0 and the “Ratio (Estimated Docetaxel/Docetaxel) (AUC1-24)” value ([7]; Liver) was 26.4. For the same compound, the “Ratio KBA105/Docetaxel (AUC1-24)” value ([7]; Liver) was 60, the “Ratio (Estimated Docetaxel/Docetaxel) (AUC1-24)” value ([7]; Lung) was 221 and the “Ratio KBA105/Docetaxel (AUC1-24)” value ([7]; Lung) was 500. The “Ratio (Estimated Docetaxel/Docetaxel) (AUC1-24)” value ([7]; Mammary) was 1.5, the “Ratio KBA105/Docetaxel (AUC1-24)” value ([7]; Mammary) was 3.3 and the “Ratio (Estimated Docetaxel/Docetaxel) (AUC1-24)” value ([7]; Ovary) was 0.7. The “Ratio KBA105/Docetaxel (AUC1-24)” value ([7]; Ovary) was 1.6, the “Ratio (Estimated Docetaxel/Docetaxel) (AUC1-24)” value ([7]; Spleen) was 25.0 and the “Ratio KBA105/Docetaxel (AUC1-24)” value ([7]; Spleen) was 24.9. For the same compound, the IC50 (A-375 skin cancer cells; A-375 (Skin), Table 4, 2 or 3 days) was 0.00043 µM, the “effect on body weight” value (SKOV3 cancer cells) was “unaffected” and the “Ratio between AUC1-24 for KBA105 and Docetaxel” value [8] was “around 35”. It also gave an IC50 ([2]; Table 4, 2 or 3 days) of 0.0007 µM and an IC50 ([3]; MDA-MB-231 (Breast), Table 4, 2 or 3 days) of 0.00103 µM.
